According to the supplement of paper PMC9112550, “Optimization of the antimicrobial peptide Bac7 by deep mutational scanning” (BMC Biology, 2022):

The sequences below were run on Escherichia coli TOP10 (assay: shrunken log2 fold change of peptide-encoding DNA abundance (4.5 h post-induction vs induction); higher = less antimicrobial activity (less host growth inhibition)). Conditions: time post-induction: 4.5 h; library: site-saturation at positions 5, 18, 19, 20.
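Note: peptides expressed intracellularly from a pBAD plasmid library in pooled LB shake-flask culture, induced with 0.3% L-arabinose, DNA abundance read by NGS, three biological replicates, DESeq2 with apeglm shrinkage.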

Sequence | shrunken log2 fold change
RRIRMRPPRLPRPRPRPVNYPRP | -0.0244
RRIRSRPPRLPRPRPRPEHIPRP | 0.0843
RRIRNRPPRLPRPRPRPDSIPRP | -0.307
RRIRARPPRLPRPRPRPNNYPRP | -0.356
RRIRPRPPRLPRPRPRPRKFPRP | -0.188
RRIRNRPPRLPRPRPRPLPVPRP | 0.437
RRIRVRPPRLPRPRPRPMEAPRP | 0.0665
RRIRKRPPRLPRPRPRPLLQPRP | 0.31
RRIRERPPRLPRPRPRPALEPRP | 0.0291
RRIRPRPPRLPRPRPRPHWSPRP | 0.26
RRIRNRPPRLPRPRPRPYTTPRP | -0.83
RRIRYRPPRLPRPRPRPKTMPRP | -0.614
RRIRQRPPRLPRPRPRPMQMPRP | 0.0303
RRIRFRPPRLPRPRPRPVSYPRP | 0.0168
RRIRARPPRLPRPRPRPKTMPRP | 0.352
RRIRNRPPRLPRPRPRPVELPRP | -0.0081
RRIRWRPPRLPRPRPRPAKFPRP | 0.0295
RRIRMRPPRLPRPRPRPYWKPRP | 0.0275
RRIRSRPPRLPRPRPRPGELPRP | 0.0807
RRIRTRPPRLPRPRPRPQFVPRP | -0.127
RRIRVRPPRLPRPRPRPYMLPRP | -0.71
RRIRWRPPRLPRPRPRPFPRPRP | 0.111
RRIRKRPPRLPRPRPRPQHTPRP | 0.0113
RRIRMRPPRLPRPRPRPACPPRP | 0.262
RRIRTRPPRLPRPRPRPCCLPRP | 0.096

Sequence | shrunken log2 fold change
RRIRDRPPRLPRPRPRPIDQPRP | -0.0222
RRIRCRPPRLPRPRPRPWFRPRP | -0.269
RRIRTRPPRLPRPRPRPLGSPRP | 0.0751
RRIRRRPPRLPRPRPRPIIKPRP | -0.265
RRIRKRPPRLPRPRPRPEWVPRP | 0.478
RRIRSRPPRLPRPRPRPITYPRP | -0.361
RRIRIRPPRLPRPRPRPCEAPRP | -0.395
RRIRQRPPRLPRPRPRPIPHPRP | 0.021
RRIRPRPPRLPRPRPRPPQPPRP | 0.441
RRIRWRPPRLPRPRPRPDDIPRP | -0.163
RRIRMRPPRLPRPRPRPHQTPRP | 0.184
RRIRMRPPRLPRPRPRPKQDPRP | 1.14
RRIRSRPPRLPRPRPRPEDHPRP | 0.146
RRIRLRPPRLPRPRPRPTCLPRP | -0.255
RRIRKRPPRLPRPRPRPDEPPRP | 2.05
RRIRTRPPRLPRPRPRPAGSPRP | -0.000597
RRIRSRPPRLPRPRPRPSMLPRP | -0.3
RRIRPRPPRLPRPRPRPLNPPRP | -0.131
RRIRKRPPRLPRPRPRPCDKPRP | 0.000564
RRIRARPPRLPRPRPRPIIPPRP | -0.256
RRIRWRPPRLPRPRPRPILQPRP | 0.0247
RRIRRRPPRLPRPRPRPKMIPRP | 0.103
RRIRDRPPRLPRPRPRPDQDPRP | 0.399
RRIRQRPPRLPRPRPRPSFMPRP | -0.509
RRIRGRPPRLPRPRPRPLFAPRP | 1.36

Sequence | shrunken log2 fold change
RRIRWRPPRLPRPRPRPARRPRP | 0.495
RRIRKRPPRLPRPRPRPGSEPRP | 0.66
RRIRQRPPRLPRPRPRPCEVPRP | -0.00192
RRIRTRPPRLPRPRPRPWYCPRP | -0.153
RRIRWRPPRLPRPRPRPLIQPRP | 0.279
RRIRHRPPRLPRPRPRPPGGPRP | 0.443
RRIRWRPPRLPRPRPRPTERPRP | -0.124
RRIRGRPPRLPRPRPRPTNSPRP | 0.319
RRIRVRPPRLPRPRPRPCPEPRP | -0.189
RRIRTRPPRLPRPRPRPFTQPRP | -0.487
RRIRVRPPRLPRPRPRPYHPPRP | -0.406
RRIRLRPPRLPRPRPRPCFPPRP | -0.206
RRIRTRPPRLPRPRPRPNDWPRP | -0.385
RRIRMRPPRLPRPRPRPTAWPRP | 1.4
RRIRNRPPRLPRPRPRPYINPRP | -0.801
RRIRIRPPRLPRPRPRPNHGPRP | -0.413
RRIRFRPPRLPRPRPRPIMNPRP | -0.515
RRIRIRPPRLPRPRPRPARKPRP | 0.462
RRIRIRPPRLPRPRPRPPISPRP | -0.391
RRIRNRPPRLPRPRPRPHHPPRP | -0.398
RRIRNRPPRLPRPRPRPMSWPRP | -0.549
RRIRRRPPRLPRPRPRPHGIPRP | 0.0963
RRIRARPPRLPRPRPRPANKPRP | 0.0442
RRIRTRPPRLPRPRPRPKAKPRP | -0.0262
RRIRIRPPRLPRPRPRPDITPRP | -0.0982

Sequence | shrunken log2 fold change
RRIRGRPPRLPRPRPRPPKNPRP | 1.11
RRIRYRPPRLPRPRPRPRYLPRP | -0.176
RRIRGRPPRLPRPRPRPHSTPRP | 0.517
RRIRERPPRLPRPRPRPPQAPRP | 0.154
RRIRDRPPRLPRPRPRPWMHPRP | 0.00346
RRIRDRPPRLPRPRPRPNTYPRP | -0.127
RRIRMRPPRLPRPRPRPMPNPRP | 0.154
RRIRLRPPRLPRPRPRPCPEPRP | -0.0401
RRIRNRPPRLPRPRPRPTTQPRP | -0.222
RRIRIRPPRLPRPRPRPGIRPRP | -0.0416
RRIRIRPPRLPRPRPRPYNGPRP | -0.0564
RRIRRRPPRLPRPRPRPYTCPRP | 0.0906
RRIRYRPPRLPRPRPRPLAFPRP | -0.827
RRIRERPPRLPRPRPRPMLFPRP | -0.0835
RRIRMRPPRLPRPRPRPPGAPRP | 2.06
RRIRLRPPRLPRPRPRPPSWPRP | 0.0349
RRIRFRPPRLPRPRPRPGLWPRP | 0.526
RRIRYRPPRLPRPRPRPNWRPRP | 0.326
RRIRYRPPRLPRPRPRPNPLPRP | -0.766
RRIRRRPPRLPRPRPRPWSKPRP | -0.225
RRIRSRPPRLPRPRPRPVRWPRP | 0.893
RRIRLRPPRLPRPRPRPPMLPRP | -0.0338
RRIRSRPPRLPRPRPRPCQRPRP | -0.0305
RRIRARPPRLPRPRPRPILWPRP | 0.254
RRIRTRPPRLPRPRPRPHHKPRP | -0.614

Sequence | shrunken log2 fold change
RRIRQRPPRLPRPRPRPLRSPRP | 0.208
RRIRLRPPRLPRPRPRPMVVPRP | -0.0179
RRIRSRPPRLPRPRPRPLQKPRP | 0.0179
RRIRMRPPRLPRPRPRPKEAPRP | -0.00711
RRIRTRPPRLPRPRPRPSPLPRP | -0.335
RRIRSRPPRLPRPRPRPVSCPRP | -0.00594
RRIRIRPPRLPRPRPRPIMIPRP | -0.0324
RRIRVRPPRLPRPRPRPDGLPRP | 0.0431
RRIRTRPPRLPRPRPRPVGVPRP | 0.234
RRIRMRPPRLPRPRPRPTDLPRP | 0.225
RRIRERPPRLPRPRPRPRQGPRP | 0.235
RRIRMRPPRLPRPRPRPFFLPRP | -0.199
RRIRARPPRLPRPRPRPRFGPRP | 0.469
RRIRWRPPRLPRPRPRPMVWPRP | 0.025
RRIRIRPPRLPRPRPRPEWGPRP | -0.0166
RRIRFRPPRLPRPRPRPEFGPRP | 0.0197
RRIRRRPPRLPRPRPRPMWRPRP | 0.312
RRIRNRPPRLPRPRPRPCECPRP | 0.0219
RRIRFRPPRLPRPRPRPRYNPRP | -0.323
RRIRRRPPRLPRPRPRPQHAPRP | 0.314
RRIRMRPPRLPRPRPRPKATPRP | 0.0633
RRIRDRPPRLPRPRPRPINRPRP | -0.104
RRIRFRPPRLPRPRPRPETGPRP | 0.0907
RRIRNRPPRLPRPRPRPDEFPRP | -0.0168
RRIRVRPPRLPRPRPRPWYHPRP | -0.209

Sequence | shrunken log2 fold change
RRIRVRPPRLPRPRPRPTVSPRP | -0.131
RRIRLRPPRLPRPRPRPLIGPRP | 0.0224
RRIRPRPPRLPRPRPRPWRLPRP | 0.0836
RRIRKRPPRLPRPRPRPEISPRP | -0.0587
RRIRHRPPRLPRPRPRPSFCPRP | -0.507
RRIRKRPPRLPRPRPRPWWDPRP | -0.0115
RRIRSRPPRLPRPRPRPSLSPRP | -0.0859
RRIRIRPPRLPRPRPRPCKCPRP | -0.0887
RRIRLRPPRLPRPRPRPKEPPRP | -0.0333
RRIRCRPPRLPRPRPRPWYHPRP | -0.392
RRIRMRPPRLPRPRPRPPKLPRP | 0.343
RRIRIRPPRLPRPRPRPLCNPRP | -0.807
RRIRARPPRLPRPRPRPAQDPRP | 0.232
RRIRDRPPRLPRPRPRPGIHPRP | -0.89
RRIRDRPPRLPRPRPRPKFAPRP | -0.0673
RRIRQRPPRLPRPRPRPFHQPRP | -0.00804
RRIRMRPPRLPRPRPRPWAYPRP | -0.012
RRIRMRPPRLPRPRPRPTQYPRP | 0.248
RRIRSRPPRLPRPRPRPHLHPRP | -0.177
RRIRMRPPRLPRPRPRPLCKPRP | 0.206
RRIRVRPPRLPRPRPRPLRPPRP | 0.97
RRIRIRPPRLPRPRPRPHVWPRP | -0.287
RRIRWRPPRLPRPRPRPGRFPRP | 0.152
RRIRSRPPRLPRPRPRPAMKPRP | 0.00274
RRIRTRPPRLPRPRPRPMCNPRP | -0.249
